Data as given in the supplement of paper PMC11246515.
± gives the standard deviation of the averaged measurements.

Assay: total protein half-life in vivo (active degradation + dilution); higher = more stable protein
[1] = E. coli NCM3722 delta-clpP delta-lon delta-hslV, growth: N-lim chemostat, doubling time 6 h
[2] = E. coli NCM3722 delta-lon, growth: N-lim chemostat, doubling time 6 h
[3] = E. coli NCM3722 delta-clpP, growth: N-lim chemostat, doubling time 6 h
[4] = E. coli NCM3722 delta-hslV, growth: N-lim chemostat, doubling time 6 h
[5] = E. coli NCM3722 delta-smpB, growth: N-lim chemostat, doubling time 6 h
[6] = wild type E. coli NCM3722, growth: C-lim chemostat, doubling time 3 h
[7] = wild type E. coli NCM3722, growth: C-lim chemostat, doubling time 6 h
[8] = wild type E. coli NCM3722, growth: C-lim chemostat, doubling time 12 h
[9] = wild type E. coli NCM3722, growth: N-lim chemostat, doubling time 6 h
[10] = wild type E. coli NCM3722, growth: N-lim chemostat, doubling time 12 h
[11] = wild type E. coli NCM3722, growth: P-lim chemostat, doubling time 6 h
[12] = wild type E. coli NCM3722, growth: P-lim chemostat, doubling time 12 h

| Sequence | total protein half-life in vivo [1] [h] | total protein half-life in vivo [2] [h] | total protein half-life in vivo [3] [h] | total protein half-life in vivo [4] [h] | total protein half-life in vivo [5] [h] | total protein half-life in vivo [6] [h] | total protein half-life in vivo [7] [h] | total protein half-life in vivo [8] [h] | total protein half-life in vivo [9] [h] | total protein half-life in vivo [10] [h] | total protein half-life in vivo [11] [h] | total protein half-life in vivo [12] [h] |
| --- | --- | --- | --- | --- | --- | --- | --- | --- | --- | --- | --- | --- |
| MYTSGYAHRSSSFSSAASKIARVSTENTTAGLISEVVYREDQPMMTQLLLLPLLQQLGQQSRWQLWLTPQQKLSREWVQASGLPLTKVMQISQLSPCHTVESMVRALRTGNYSVVIGWLADDLTEEEHAELVDAANEGNAMGFIMRPVSASSHATRQLSGLKIHSNLYH [P0AFZ5] | 5.07 ± 0.91 | 0.671 ± 0.059 |  |  |  |  |  |  |  |  |  |  |
| MNYQMITTDDALASLCEAVRAFPAIALDTEFVRTRTYYPQLGLIQLFDGEHLALIDPLGITDWSPLKAILRDPSITKFLHAGSEDLEVFLNVFGELPQPLIDTQILAAFCGRPMSWGFASMVEEYSGVTLDKSESRTDWLARPLTERQCEYAAADVWYLLPITAKLMVETEASGWLPAALDECRLMQMRRQEVVAPEDAWRDITNAWQLRTRQLACLQLLADWRLRKARERDLAVNFVVREEHLWSVARYMPGSLGELDSLGLSGSEIRFHGKTLLALVEKAQTLPEDALPQPMLNLMDMPGYRKAFKAIKSLITDVSETHKISAELLASRRQINQLLNWHWKLKPQNNLPELISGWRGELMAEALHNLLQEYPQ | 4.11 ± 0.93 | 4.79 ± 1.2 | 4.41 ± 1.4 | 3.88 ± 0.32 | 3.65 ± 0.37 | > 4 | 5.23 ± 0.24 | 10 ± 0.67 | 3.834 ± 0.0071 | 6.31 ± 1.4 | 5.82 ± 0.58 | 11.8 ± 1.5 |
| MSILVTRPSPAGEELVSRLRTLGQVAWHFPLIEFSPGQQLPQLADQLAALGESDLLFALSQHAVAFAQSQLHQQDRKWPRLPDYFAIGRTTALALHTVSGQKILYPQDREISEVLLQLPELQNIAGKRALILRGNGGRELIGDTLTARGAEVTFCECYQRCAIHYDGAEEAMRWQAREVTMVVVTSGEMLQQLWSLIPQWYREHWLLHCRLLVVSERLAKLARELGWQDIKVADNADNDALLRALQ | 5.34 ± 0.71 | 4.69 ± 0.62 | 4.14 ± 0.96 | 4.13 ± 0.24 | 3.57 ± 0.23 | 2.351 ± 0.014 | 4.45 ± 0.14 | 9.45 ± 3.5 | 3.83 ± 0.21 | 6.5 ± 0.57 | 5.08 ± 0.62 | 9.38 ± 0.13 |
| MIFTSSCCDNLSIDEIIERAEKGDCEAQYIVGFYYNRDSAIDSPDDEKAFYWLKLAAEQGHCEAQYSLGQKYTEDKSRHKDNEQAIFWLKKAALQGHTFASNALGWTLDRGEAPNYKEAVVWYQIAAESGMSYAQNNLGWMYRNGNGVAKDYALAFFWYKQAALQGHSDAQNNLADLYEDGKGVAQNKTLAAFWYLKSAQQGNRHAQFQIAWDYNAGEGVDQDYKQAMYWYLKAAAQGSVGAYVNIGYMYKHGQGVEKDYQAAFEWFTKAAECNDATAWYNLAIMYHYGEGRPVDLRQALDLYRKVQSSGTRDVSQEIRETEDLL | 6.2 |  |  |  |  |  |  |  |  |  |  |  |
| MALHDENVVWHSHPVTVQQRELHHGHRGVVLWFTGLSGSGKSTVAGALEEALHKLGVSTYLLDGDNVRHGLCSDLGFSDADRKENIRRVGEVANLMVEAGLVVLTAFISPHRAERQMVRERVGEGRFIEVFVDTPLAICEARDPKGLYKKARAGELRNFTGIDSVYEAPESAEIHLNGEQLVTNLVQQLLDLLRQNDIIRS [P0A6J1] | 4.97 ± 0.48 | 2.4 ± 0.82 | 3.79 ± 0.44 | 2.03 ± 0.21 | 1.72 ± 0.06 | 1.86 ± 0.13 | 4.8 ± 3 |  | 2.41 | 2.47 | 2.07 | 3.52 ± 0.087 |
| MVTLYGIKNCDTIKKARRWLEANNIDYRFHDYRVDGLDSELLNDFINELGWEALLNTRGTTWRKLDETTRNKITDAASAAALMTEMPAIIKRPLLCVPGKPMLLGFSDSSYQQFFHEV | 5.94 ± 0.23 |  | 5.95 ± 0.25 |  | 5.87 ± 1.3 | 3.07 ± 0.16 | 6.1 ± 0.65 | 9.79 ± 1.3 | > 8 | 8.47 | 6.07 | 11.3 ± 0.18 |
| MKLVHMASGLAVAIALAACADKSADIQTPAPAANTSISATQQPAIQQPNVSGTVWIRQKVALPPDAVLTVTLSDASLADAPSKVLAQKAVRTEGKQSPFSFVLSFNPADVQPNARILLSAAITVNDKLVFITDTVQPVINQGGTKADLTLVPVQQTAVPVQASGGATTTVPSTSPTQVNPSSAVPAPTQY | 4.41 ± 0.88 | 6.69 ± 0.2 | 6.1 ± 0.34 | 6.08 | 5.23 ± 0.59 | 3.57 ± 0.22 | 5.53 ± 0.0062 | 11.4 ± 4.4 | 5.25 | 9.14 ± 0.82 | 5.51 ± 0.33 | 11.8 ± 0.68 |
| MRYLNTKNIIAAGVLLSCMSSIAWGAIIPDRTRIIMNESDKGEALKLTNQSKNLPYLAQTWIEDTKGNKSRDFIVTVPPMVRLNPSEQIQIRMITQEKIAQLPKDRETLFYFNVREIPPKTDKKNVMQVTMQHALKLFWRPKAIELEDDGVMTYEKVEIIRRNDGSIRFNNKMPYHVTLGYIGTNGVTMLPQTQSLMVTPFSYANTQFKNVPSTFQVGYINDFGGLSFYEINCPVVNNICNISVANRDQ |  |  |  |  | 5.38 |  |  |  | 5.39 | 11.3 | 5.6 | 14.3 |
| MSAGKLPEGWVIAPVSTVTTLIRGVTYKKEQAINYLKDDYLPLIRANNIQNGKFDTTDLVFVPKNLVKESQKISPEDIVIAMSSGSKSVVGKSAHQHLPFECSFGAFCGVLRPEKLIFSGFIAHFTKSSLYRNKISSLSAGANINNIKPASFDLINIPIPPLAEQKIIAEKLDTLLAQVDSTKARFEQIPQILKRFRQAVLGGAVNGKLTEKWRNFEPQHSVFKKLNFESILTELRNGLSSKPNESGVGHPILRISSVRAGHVDQNDIRFLECSESELNRHKLQDGDLLFTRYNGSLEFVGVCGLLKKLQHQNLLYPDKLIRARLTKDALPEYIEIFFSSPSARNAMMNCVKTTSGQKGISGKDIKSQVVLLPPVKEQAEIVRRVEQLFAYADTIEKQVNNALARVNNLTQSILAKAFRGELTAQWRAENPDLISGENSAAALLEKIKAERAASGGKKASRKKS | 5.47 ± 0.81 | 6.44 ± 0.56 | 5.86 ± 0.12 | 5.48 ± 0.098 | 5.68 ± 0.34 | 3.08 ± 0.36 | 6.03 ± 0.34 | 10.9 ± 0.68 | 5.84 ± 0.44 | 10.7 ± 0.57 | 5.46 ± 0.33 | 10.9 ± 0.15 |
| MKVAVLGAAGGIGQALALLLKTQLPSGSELSLYDIAPVTPGVAVDLSHIPTAVKIKGFSGEDATPALEGADVVLISAGVARKPGMDRSDLFNVNAGIVKNLVQQVAKTCPKACIGIITNPVNTTVAIAAEVLKKAGVYDKNKLFGVTTLDIIRSNTFVAELKGKQPGEVEVPVIGGHSGVTILPLLSQVPGVSFTEQEVADLTKRIQNAGTEVVEAKAGGGSATLSMGQAAARFGLSLVRALQGEQGVVECAYVEGDGQYARFFSQPLLLGKNGVEERKSIGTLSAFEQNALEGMLDTLKKDIALGEEFVNK | 4.53 ± 0.53 | 4.42 ± 0.25 | 3.92 ± 0.44 | 3.803 ± 0.013 | 3.84 ± 0.068 | 3.039 ± 0.028 | 5.65 ± 0.34 | 9.69 ± 0.74 | 3.98 ± 0.16 | 6.2 ± 0.2 | 5.94 ± 0.074 | 11.8 ± 0.51 |
| MITRDFLMNADCKTAFGAIEESLLWSAEQRAASLAATLACRPDEGPVWIFGYGSLMWNPALEFTESCTGTLVGWHRAFCLRLTAGRGTAHQPGRMLALKEGGRTTGVAYRLPEETLEQELTLLWKREMITGCYLPTWCQLDLDDGRTVNAIVFIMDPRHPEYESDTRAQVIAPLIAAASGPLGTNAQYLFSLEQELIKLGMQDDGLNDLLVSVKKLLAENFPDGVLRPGFA | 5.67 ± 0.14 |  |  |  |  |  |  |  |  |  |  |  |
| MVQRITIAPQGPEFSRFVMGYWRLMDWNMSARQLVSFIEEHLDLGVTTVDHADIYGGYQCEAAFGEALKLAPHLRERMEIVSKCGIATTAREENVIGHYITDRDHIIKSAEQSLINLATDHLDLLLIHRPDPLMDADEVADAFKHLHQSGKVRHFGVSNFTPAQFALLQSRLPFTLATNQVEISPVHQPLLLDGTLDQLQQLRVRPMAWSCLGGGRLFNDDYFQPLRDELAVVAEELNAGSIEQVVYAWVLRLPSQPLPIIGSGKIERVRAAVEAETLKMTRQQWFRIRKAALGYDVP | 5.21 ± 0.14 | 5.07 ± 0.77 | 5.59 ± 0.96 | 4.95 ± 0.13 | 4.67 ± 0.12 | 2.86 ± 0.26 | 5.71 ± 0.085 | 9.47 ± 0.64 | 5 ± 0.25 | 8.62 ± 0.69 | 5.79 ± 0.17 | 10.9 ± 0.49 |
| MESLMPWDARDTMSLRTEFVLFASQDGANIRSLCRRFGISPATGYKWLQRWAQEGAAGLQDRPRIPHHSPNRSSDDITALLRMAHDRHERWGARKIKRWLEDQGHTMPAFSTVHNLMARHGLLPGASPGIPATGRFEHDAPNRLWQMDFKGHFPFGGGRCHPLTLLDDHSRFSLCLAHCTDERRETVQQQLVSVFERYGLPDRMTMDNGSPWGDTTGTWTALELWLMRLGIRVGHSRPYHPQTQGKLERFHRSLKAEVLQGKWFADSGELQRAFDHWRTVYNLERPHEALDMAVPGSRYQPSARQYSGNTTPPEYDEGVMVRKVDISGKLSVKGVSLSAGKAFRGERVGLKEMQEDGSYEVWWYSTKVGVIDLKKKSITMGKGC | 3.5 ± 0.88 |  | 3.06 |  |  |  | 2.18 | 5.67 |  | 4.45 |  |  |
| MFTGIVQGTAKLVSIDEKPNFRTHVVELPDHMLDGLETGASVAHNGCCLTVTEINGNHVSFDLMKETLRITNLGDLKVGDWVNVERAAKFSDEIGGHLMSGHIMTTAEVAKILTSENNRQIWFKVQDSQLMKYILYKGFIGIDGISLTVGEVTPTRFCVHLIPETLERTTLGKKKLGARVNIEIDPQTQAVVDTVERVLAARENAMNQPGTEA [P0AFU8] | 4.8 ± 0.2 | 4.774 ± 0.047 | 4.397 ± 0.01 | 4.123 ± 0.0054 | 4.561 ± 0.029 | 3.06 ± 0.28 | 5.3745 ± 0.003 | 12.1 ± 4.4 | 4.25 ± 0.16 | 6.8 ± 0.16 | 5.96 ± 0.6 | 11.6 ± 0.24 |
